Experimental findings from patent US20240400652A1 are described below.

The target in the assay is SARS-CoV-2 spike with Y453F (SARS-CoV-2) (UniProt P0DTC2). Put plainly: cell-based or functional assay.

The substance REGN10987 (antibody) returned a decrease in neutralization, live virus or pseudovirus (fold decrease) of 4.
